According to patent US20150376286A1 (Amgen, published 2015):

B1: 13H2 (antibody, human IgG2, kappa, V domains shown)
VH: EVQLVESGGGLVKPGGSLRLSCAASGYTFSTYSMNWVRQAPGKGLEWVSSISSSSSYRYYADSVKGRFTISRDNAKNSLYLQMSSLRAEDTAVYYCAREGVSGSSPYSISWYDYYYGMDVWGQGTTVTVSS
VL: DIQMTQSPSSLSASVGDRVTITCRASQGIRKDLGWYQQKPGKAPKRLIYGASSLQSGVPSRFSGSGSGTEFTLTISSLQPEDFATYYCLQYNSFPWTFGQGTKVEIKR
notes: also called 13H2.2
B2: 2E7 (antibody, human IgG2, kappa, V domains shown)
VH: EVQLLESGGGLVQPGESLRLSCAASGFTFSSYAMSWVRQAPGKGLEWVSAISGSGGRTYYADSVKGRFTISRDNSKNTLYLQMNSLRAEDTAVYYCAKDQREVGPYSSGWYDYYYGMDVWGQGTTVTVSS
VL: DIQMTQSPSSLSASVGDRVTITCRASQGIRNDLGWFQQKPGKAPKRLIYAASSLQSGVPSRFSGSGSGTEFTLTISSLQPEDLATYYCLQYNIYPWTFGQGTKVEIKR
notes: also called 02E7; 02E7.2
B3: 1E11 (antibody, human IgG2, lambda, V domains shown)
VH: QVQLVESGGGVVQPGRSLRLSCAASGFTFSSFGMHWVRQAPGKGLEWVAVISFDGSIKYSVDSVKGRFTISRDNSKNTLFLQMNSLRAEDTAVYYCARDRLNYYDSSGYYHYKYYGMAVWGQGTTVTVSS
VL: QSVLTQPPSVSEAPGQKVTISCSGSSSNIGNNYVSWYQQLPGTAPKLLIYDNNKRPSGIPDRFSGSKSGTSATLGITGLQTGDEADYYCGTWDSRLSAVVFGGGTKLTVLG
notes: also called 01E11; 01E11.2
B4: 9D4 (antibody, human IgG2, lambda, V domains shown)
VH: QVQLVESGGGVVQPGRSLRLSCAASGFTFSSFGMHWVRQAPGKGLEWVAVISFDGSIKYSVDSVKGRFTISRDNSKNTLFLQMNSLRAEDTAVYYCARDRLNYYDSSGYYHYKYYGMAVWGQGTTVTVSS
VL: QSVLTQPPSVSAAPGQKVTISCSGSSSNIGNNYVSWYQQFPGTAPKLLIYDNNKRPSGIPDRFSGSKSGTSATLGITGLQTGDEADYYCGTWDSRLSAVVFGGGTKLTVLG
notes: also called 09D4; 09D4.2
B5: 10E4 (antibody, human IgG2, lambda, V domains shown)
VH: QVQLVQSGAEVKKPGASVKVSCKASGYTFTDYYMYWVRQAPGQGLEWMGWISPNSGGTNYAQKFQGRVTMTRDTSISTAYMELSRLRSDDTAVYYCVRGGYSGYAGLYSHYYGMDVWGQGTTVTVSS
VL: not shown
B6: 4H6 (antibody, human IgG2, kappa, V domains shown)
VH: EVQLVESGGGLVKPGRSLRLSCTASGFTFGDYAMSWFRQAPGKGLEWIGFIRSRAYGGTPEYAASVKGRFTISRDDSKTIAYLQMNSLKTEDTAVYFCARGRGIAARWDYWGQGTLVTVSS
VL: not shown
notes: also called 04H6; 04H6.1
B7: 5F5 (antibody, human IgG2, kappa, V domains shown)
VH: QVQLVESGGGVVQPGRSLRLSCAASGFTFSSYGMHWVRQAPGKGLEWVAVISYDGSHESYADSVKGRFTISRDISKNTLYLQMNSLRAEDTAVYFCARERKRVTMSTLYYYFYYGMDVWGQGTTVTVSS
VL: DIILTQTPLSLSVTPGQPASISCKSSQSLLHSDGKTYLYWYLQKPGQPPQLLIYEVSNRFSGEPDRFSGSGSGTDFTLKISRVEAEDVGTYYCMQSFPLPLTFGGGTKVEIKR
notes: also called 05F5; 05F5.1
B8: 12E8 (antibody, human IgG2, kappa, V domains shown)
VH: QVQLVESGGGVVQPGRSLRLSCAASGFTFSSYGMHWVRQAPGKGLEWVAVISYDGSHESYADSVKGRFTISRDISKNTLYLQMNSLRAEDTAVYFCARERKRVTMSTLYYYFYYGMDVWGQGTTVTVSS
VL: DITLTQTPLSLSVSPGQPASISCKSSQSLLHSDGRNYLYWYLQKPGQPPQLLIYEVSNRFSGLPDRFSGSGSGTDFTLKISRVEAEDVGIYYCMQSFPLPLTFGGGTKVEIKR
notes: also called 12E8.2
B9: 3C8 (antibody, human IgG2, kappa, V domains shown)
VH: QVQLVESGGGVVQPGRSLRLSCAASGFTFSSYGMHWVRQAPGKGLEWVAVISYDGSHESYADSVKGRFTISRDISKNTLYLQMNSLRAEDTAVYFCARERKRVTMSTLYYYFYYGMDVWGQGTTVTVSS
VL: DIILAQTPLSLSVTPGQPASISCKSSQSLLHSAGKTYLYWYLQKPGQPPQLLIYEVSNRFSGVPDRFSGSGSGTDFTLKISRVEAEDVGIYYCMQSFPLPLTFGGGTKVEIKR

Tests used:
[1] = target: T1, human CGRP receptor (CRLR + RAMP1) (human, UniProt Q16602 23-461; O60894 27-148); test: cell-based or functional assay
[2] = target: T2, cynomolgus CGRP receptor (cynoCRLR + cynoRAMP1) (cynomolgus monkey); test: cell-based or functional assay
T2 chain 1: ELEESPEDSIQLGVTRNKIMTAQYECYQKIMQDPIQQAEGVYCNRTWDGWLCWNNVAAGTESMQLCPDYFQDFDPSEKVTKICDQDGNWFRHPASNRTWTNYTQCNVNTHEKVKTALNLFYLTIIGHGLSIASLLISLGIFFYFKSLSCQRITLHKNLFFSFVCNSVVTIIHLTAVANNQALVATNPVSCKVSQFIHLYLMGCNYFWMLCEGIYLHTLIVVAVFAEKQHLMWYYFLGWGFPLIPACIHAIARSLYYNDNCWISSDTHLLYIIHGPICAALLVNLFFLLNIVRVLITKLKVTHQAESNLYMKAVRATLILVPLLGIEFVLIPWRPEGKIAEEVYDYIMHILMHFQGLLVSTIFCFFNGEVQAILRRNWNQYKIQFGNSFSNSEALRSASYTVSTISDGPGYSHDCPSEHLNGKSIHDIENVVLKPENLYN
T2 chain 2: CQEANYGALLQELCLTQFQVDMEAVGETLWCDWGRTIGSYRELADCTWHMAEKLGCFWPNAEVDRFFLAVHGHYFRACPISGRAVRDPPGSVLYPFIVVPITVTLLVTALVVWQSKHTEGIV

[3] = target: rat CGRP receptor (rat, UniProt Q63118 24-464; Q9JJ74 27-148); test: cell-based or functional assay
[4] = target: human amylin AMY1 receptor (hCTR + hRAMP1) (human, UniProt P30988 25-474); test: cell-based or functional assay
[5] = target: human adrenomedullin receptor 1 (hCRLR + hRAMP2) (human, UniProt O60895 43-175); test: cell-based or functional assay
[6] = target: human adrenomedullin receptor 2 (hCRLR + hRAMP3) (human, UniProt O60896 24-148); test: cell-based or functional assay
[7] = target: T1, human CGRP receptor (CRLR + RAMP1); test: cell-based or functional assay; remark: listed apart in the source
[8] = target: T1, human CGRP receptor (CRLR + RAMP1); test: 125I-CGRP competition binding, HTB-10 cell membranes
Protocol: (§1) The plates were incubated at room temperature for 2 hours with shaking at 60 rpm, and then the contents of each well were filtered over 0.5% polyethyleneimine (PEI)-treated (for at least one hour) GF/C 96-well filter plates. The GF/C filter plates were washed six times with ice-cold 50 mM Tris, pH 7.5 and dried in an oven at 55° C. for 1 hour. The bottoms of the GF/C plates were then sealed. 40 μl Microscint™ 20 was added to each well, the tops of the GF/C plates were sealed with TopSeal™-A (a press-on adhesive sealing film), and the GF/C plates were counted with TopCount NXT (Packard). The data were analyzed using Prizm (GraphPad Software Inc.)

[9] = target: T1, human CGRP receptor (CRLR + RAMP1); test: radioligand competition: 125I-CGRP binding to human CGRP receptor on HTB-10 cell membranes, antibody as competitor
Protocol: as §1

[10] = target: T1, human CGRP receptor (CRLR + RAMP1); test: FACS on AM-1 CHO huCGRP R cells, KinExA n-curve analysis
Protocol: Briefly, AM-1 CHO huCGRP R-expressing cells, prepared as described above, were plated in 96-well plates at densities of 16,000 or 160,000 cells per well in DMEM medium containing 10% FBS, NEAA, PS, L Glut, NaPyr and 0.05% sodium azide. […] After an overnight incubation at 4° C. in a total volume of 120 μl, on a plate shaker, the cells were washed 2× with PBS+2% FBS, centrifuging and discarding supernatant each time. 100 μl/well of G anti-Hu Fc Cy5 (5 μg/mL; Jackson ImmunoResearch Laboratories Inc., West Grove, Pa., USA) containing 7AAD (5 μl/well) was then added and incubated at 4° C. for 40 min. The cells were washed 2× with PBS+2% FBS, centrifuging and discarding the supernatant each time. 100 μl PBS+2% FBS buffer was then added and analyzed by FACS to determined the binding geomean. The Kd was calculated using KinExA software by taking the negative geomean at each antibody concentration as the amount of free Ab present Rathanaswami, et al., Biochemical and Biophysical Research Communications 334 (2005) 1004-1013.

Binder | cAMP assay IC50 [1] | cAMP assay IC50 [2] | cAMP assay IC50 [3] | cAMP assay IC50 [4] | cAMP assay IC50 [5] | cAMP assay IC50 [6] | IC50 (read off the curve) [7] | Ki [8] | IC50 (read off the curve) [9] | Kd [10]
B1 | 1.95 nM | 8.41 nM | > 1000 nM | > 1000 nM | > 1000 nM | > 1000 nM | ~6 nM | 0.033 nM | ~0.1 nM | –
B2 | 6.3 nM | 5.51 nM | > 1000 nM | > 1000 nM | > 1000 nM | > 1000 nM | – | 0.117 nM | – | 1.5 nM
B3 | 1.77 nM | 2.79 nM | > 1000 nM | > 1000 nM | > 1000 nM | > 1000 nM | ~1 nM | 0.03 nM | ~0.03 nM | –
B4 | 1.4 nM | 2.46 nM | > 1000 nM | > 1000 nM | > 1000 nM | > 1000 nM | – | 0.023 nM | – | 2.5 nM
B5 | – | 3.23 nM | > 1000 nM | > 1000 nM | > 1000 nM | > 1000 nM | – | – | – | –
B6 | 3.78 nM | 5.59 nM | > 1000 nM | > 1000 nM | > 1000 nM | > 1000 nM | – | 0.052 nM | – | 2.4 nM
B7 | 4.79 nM | 4.78 nM | > 1000 nM | > 1000 nM | > 1000 nM | > 1000 nM | – | 0.147 nM | – | –
B8 | 2.93 nM | 4.13 nM | > 1000 nM | > 1000 nM | > 1000 nM | > 1000 nM | – | 0.097 nM | – | 2.3 nM
B9 | – | 5.32 nM | > 1000 nM | > 1000 nM | > 1000 nM | > 1000 nM | – | – | – | –
